Data on seven molecules can be found in article PMC6300691, “Enhancement of Heat Stability and Kinetic Parameters of the Maize Endosperm ADP-Glucose Pyrophosphorylase by Mutagenesis of Amino Acids in the Small Subunit With High B Factors” (Frontiers in Plant Science, 2018).

Like-named read-outs stand apart in the source and are kept apart here.

For one data set, the system named is T1, MP + SH2-E.
T1 construct: chimeric small subunit MP (maize 198 / potato 277 amino acids) with SH2-E
The data set is described as follows: Initial-rate assay without 3-PGA, ATP and G-1-P both varied (0.01-10 mM and 0.1-25 mM), global fit to a sequential mechanism. The data set is classed as biochemical. The following applies: read-out: G-1-P Km (absence of 3-PGA).

Another data set relates to T2, MP.
T2 construct: small subunit of first 198 amino acids of maize BT2 and last 277 of potato tuber small subunit, with wild type SH2
The description is as above. As to conditions: read-out: G-1-P Km (absence of 3-PGA). The data set is classed as biochemical.

Data set [1] has as its system maize endosperm AGPase. Nature of the data set: Kinetic values in the absence of 3-PGA. The data set is classed as biochemical. The text has this: (1) v=VAB/(KiaKmb+KmbA+KmaB+AB
In data set [2] the test system is maize endosperm AGPase. Nature of the data set: 3-PGA activation constant (Ka), Vmin and Vmax. Format: biochemical. As to conditions: change in activity from Vmin to total velocity with 3-PGA; substrates 2 mM. From the text: All reactions were developed as above.
For data set [3], the system named is maize endosperm AGPase. Nature of the data set: Pi inhibition in the presence of 3-PGA. Format: biochemical. The text has this:
(§1) (2) v=Vm(S/Ks+(βSI)/(αKiKs))/(1+S/Ks+I/Ki+SI/αKiKs)P-MT
(§2) (3) v=Vm(S/Ks)/(1+S/Ks+I/Ki+SI/αKiKs)L-MT

Data set [4] has as its system maize endosperm AGPase. The data set is described as follows: Catalytic activity at 37 and 55°C (end point PPi assay). Format: biochemical. The protocol:
Reactions proceeded for 2, 4, 6, 8, 10, and 15 min and were terminated by boiling. Reaction mixes (1300 μl) were pre-warmed to 37°C or 55°C and the assay was started with the addition of the enzyme. Assay time points (200 μl) were removed at the appropriate time and boiled for 2 min. At 37°C all reactions were linear for 15 min; however, at 55°C rates were linear for a shorter duration. A rate was only calculated if the reactions were linear for at least 10 min.
The amount of PPi produced in the reaction was coupled to a decrease in NADH concentration. Coupling reagent contained 25 mM imidazole pH 7.4, 4 mM MgCl2, 1 mM EDTA, 0.2 mM NADH, 0.725 U aldolase, 0.4 U triose phosphate isomerase, 0.6 U glycerophosphate dehydrogenase, 1 mM fructose 6-phosphate and 0.8 μg purified PPi-PFK per reaction. Blank samples contained complete reaction mixtures minus the enzyme. Change in absorbance between the blank and the reaction was used to calculate the amount of PPi produced. All reactions were linear with time and enzyme concentration.

Data set [5] concerns maize endosperm AGPase. Nature of the data set: Pi inhibition in the absence of 3-PGA. The following applies: for α / β: absence of 3-PGA. Format: biochemical.
Excerpt: as §1, §2

The next data set concerns E. coli AC70R1-504. The following applies: 2015, cited from earlier work.
In data set [6] the test system is maize endosperm AGPase. The following applies: cited from earlier work.
Data set [7] addresses maize endosperm AGPase. Set-up: method as in Georgelis et al., 2009; Boehlein et al., 2015. The following applies: ref Georgelis et al., 2009; Boehlein et al., 2015; cited from earlier work.
For data set [8], the system named is maize endosperm AGPase. As to conditions: ref Boehlein et al., 2015; cited from earlier work.
Setting [9] is: growth at 37 and 42°C, SH2 variants, ref Boehlein et al.

As to `O=P(O)(O)O[C@H]1O[C@H](CO)[C@@H](O)[C@H](O)[C@H]1O` [G-1-P, glucose-1-phosphate], the Km in the data set with MP + SH2-E came to 0.09 ± 0.008 mM; in the data set with MP it was 11.9 ± 3 mM.

B1: wt: wild type maize endosperm AGPase: SH2 large subunit with BT2 small subunit, expressed in E. coli (protein, UniProt P55241 46-516; P55241 46-516, looked up)
Glucose-1-phosphate … 1: FGGRVAATTQCILTSDACPETLHSQTQSSRKNYADANRVSAIILGGGTGSQLFPLTSTRATPAVPVGGCYRLIDIPMSNCFNSGINKIFVMSQFNSTSLNRHIHRTYLEGGINFADGSVQVLAATQMPEEPAGWFQGTADSIRKFIWVLEDYYSHKSIDNIVILSGDQLYRMNYMELVQKHVEDDADITISCAPVDESRASKNGLVKIDHTGRVLQFFEKPKGADLNSMRVETNFLSYAIDDAQKYPYLASMGIYVFKKDALLDLLKSKYTQLHDFGSEILPRAVLDHSVQACIFTGYWEDVGTIKSFFDANLALTEQPSKFDFYDPKTPFFTAPRCLPPTQLDKCKMKYAFISDGCLLRECNIEHSVIGVCSRVSSGCELKDSVMMGADTYETEEEASKLLLAGKVPVGIGRNTKIRNCIIDMNARIGKNVVITNSKGIQEADHPEEGYYIRSGIVVILKNATINDGSVI
Glucose-1-phosphate … 2: FGGRVAATTQCILTSDACPETLHSQTQSSRKNYADANRVSAIILGGGTGSQLFPLTSTRATPAVPVGGCYRLIDIPMSNCFNSGINKIFVMSQFNSTSLNRHIHRTYLEGGINFADGSVQVLAATQMPEEPAGWFQGTADSIRKFIWVLEDYYSHKSIDNIVILSGDQLYRMNYMELVQKHVEDDADITISCAPVDESRASKNGLVKIDHTGRVLQFFEKPKGADLNSMRVETNFLSYAIDDAQKYPYLASMGIYVFKKDALLDLLKSKYTQLHDFGSEILPRAVLDHSVQACIFTGYWEDVGTIKSFFDANLALTEQPSKFDFYDPKTPFFTAPRCLPPTQLDKCKMKYAFISDGCLLRECNIEHSVIGVCSRVSSGCELKDSVMMGADTYETEEEASKLLLAGKVPVGIGRNTKIRNCIIDMNARIGKNVVITNSKGIQEADHPEEGYYIRSGIVVILKNATINDGSVI
modifications: expressed in E. coli
As to B1, the “reduction of the Km values of both substrates by binding of 3PGA” value with maize endosperm AGPase [1] (Km without 3PGA versus with 3PGA) is reported as “over 50 fold”. In addition, the Michaelis constant (Km) was roughly 4 mM in the data set with maize endosperm AGPase [1] (absence of 3-PGA, read-out: ATP Km) and 3 mM with maize endosperm AGPase [1] (read-out: G-1-P Km (absence of 3-PGA)). Besides, in the data set with maize endosperm AGPase [2], the Vmax is reported as 6352 ± 540. Also, the α in the data set with maize endosperm AGPase [3] (varied substrate ATP) was 4.61 ± 0.07; in the data set on maize endosperm AGPase [3] (varied substrate G-1-P), 0.90 ± 0.012; with maize endosperm AGPase [5] (varied substrate ATP) it was 0.063 ± 0.034; in the data set with maize endosperm AGPase [5] (varied substrate G-1-P), 0.095 ± 0.065. The β in the data set on maize endosperm AGPase [3] (varied substrate ATP) amounted to 0.83 ± 0.037; in the data set on maize endosperm AGPase [3] (varied substrate G-1-P), 0.52 ± 0.023; in the data set on maize endosperm AGPase [5] (varied substrate ATP), 0.52 ± 0.17; in the data set on maize endosperm AGPase [5] (varied substrate G-1-P), 0.92 ± 0.31. Also, the “Activity at 37°C” value in the data set on maize endosperm AGPase [4] (37°C, 5 mM ATP, 2 mM G-1-P, 2.5 mM 3-PGA, purified enzyme from E. coli) is on record as 5415 ± 268. The “activity at 55°C (in words)” value with maize endosperm AGPase [4] (55°C) is listed as “not active”. Moreover, in the data set with maize endosperm AGPase [5], the “Ki for Pi higher in the absence of 3PGA compared to the presence of 3PGA” value is 5–10 fold.

B2: K445R: SH2 large subunit variant K445R (protein, UniProt P55241 46-516, looked up, variant K445R)
Glucose-1-phosphate …: FGGRVAATTQCILTSDACPETLHSQTQSSRKNYADANRVSAIILGGGTGSQLFPLTSTRATPAVPVGGCYRLIDIPMSNCFNSGINKIFVMSQFNSTSLNRHIHRTYLEGGINFADGSVQVLAATQMPEEPAGWFQGTADSIRKFIWVLEDYYSHKSIDNIVILSGDQLYRMNYMELVQKHVEDDADITISCAPVDESRASKNGLVKIDHTGRVLQFFEKPKGADLNSMRVETNFLSYAIDDAQKYPYLASMGIYVFKKDALLDLLKSKYTQLHDFGSEILPRAVLDHSVQACIFTGYWEDVGTIKSFFDANLALTEQPSKFDFYDPKTPFFTAPRCLPPTQLDKCKMKYAFISDGCLLRECNIEHSVIGVCSRVSSGCELKDSVMMGADTYETEEEASRLLLAGKVPVGIGRNTKIRNCIIDMNARIGKNVVITNSKGIQEADHPEEGYYIRSGIVVILKNATINDGSVI
On to B2, for which the “glycogen staining (in words)” value in the data set on E. coli AC70R1-504 (setting [9]) was “Stained darker at 37 and 42 °C”.

B3: S444A: SH2 large subunit variant S444A (protein, UniProt P55241 46-516, looked up, variant S444A)
Glucose-1-phosphate …: FGGRVAATTQCILTSDACPETLHSQTQSSRKNYADANRVSAIILGGGTGSQLFPLTSTRATPAVPVGGCYRLIDIPMSNCFNSGINKIFVMSQFNSTSLNRHIHRTYLEGGINFADGSVQVLAATQMPEEPAGWFQGTADSIRKFIWVLEDYYSHKSIDNIVILSGDQLYRMNYMELVQKHVEDDADITISCAPVDESRASKNGLVKIDHTGRVLQFFEKPKGADLNSMRVETNFLSYAIDDAQKYPYLASMGIYVFKKDALLDLLKSKYTQLHDFGSEILPRAVLDHSVQACIFTGYWEDVGTIKSFFDANLALTEQPSKFDFYDPKTPFFTAPRCLPPTQLDKCKMKYAFISDGCLLRECNIEHSVIGVCSRVSSGCELKDSVMMGADTYETEEEAAKLLLAGKVPVGIGRNTKIRNCIIDMNARIGKNVVITNSKGIQEADHPEEGYYIRSGIVVILKNATINDGSVI
Turning to B3, the “effect on 3-PGA Ka (in words)” value with maize endosperm AGPase [6] (ref Boehlein et al., 2014) is “Did not alter 3-PGA Ka”.

B4: P372A: SH2 large subunit variant P372A (protein, UniProt P55241 46-516, looked up, variant P372A)
Glucose-1-phosphate …: FGGRVAATTQCILTSDACPETLHSQTQSSRKNYADANRVSAIILGGGTGSQLFPLTSTRATPAVPVGGCYRLIDIPMSNCFNSGINKIFVMSQFNSTSLNRHIHRTYLEGGINFADGSVQVLAATQMPEEPAGWFQGTADSIRKFIWVLEDYYSHKSIDNIVILSGDQLYRMNYMELVQKHVEDDADITISCAPVDESRASKNGLVKIDHTGRVLQFFEKPKGADLNSMRVETNFLSYAIDDAQKYPYLASMGIYVFKKDALLDLLKSKYTQLHDFGSEILPRAVLDHSVQACIFTGYWEDVGTIKSFFDANLALTEQPSKFDFYDAKTPFFTAPRCLPPTQLDKCKMKYAFISDGCLLRECNIEHSVIGVCSRVSSGCELKDSVMMGADTYETEEEASKLLLAGKVPVGIGRNTKIRNCIIDMNARIGKNVVITNSKGIQEADHPEEGYYIRSGIVVILKNATINDGSVI
Take B4: the “effect on 3-PGA Ka (in words)” value in the data set with maize endosperm AGPase [6] (ref Georgelis et al., 2009, Boehlein et al., 2015) was “Increased 3-PGA Ka”. The “effect on Ki for phosphate (in words)” value at maize endosperm AGPase [7] is listed as “decreased Ki for phosphate”. Further, the “glycogen staining (in words)” value in the data set with E. coli AC70R1-504 (ref Georgelis et al., 2009, Boehlein et al.) was “reduced glycogen staining”.

B5: E438Q: SH2 large subunit variant E438Q (protein, UniProt P55241 46-516, looked up, variant E438Q)
Glucose-1-phosphate …: FGGRVAATTQCILTSDACPETLHSQTQSSRKNYADANRVSAIILGGGTGSQLFPLTSTRATPAVPVGGCYRLIDIPMSNCFNSGINKIFVMSQFNSTSLNRHIHRTYLEGGINFADGSVQVLAATQMPEEPAGWFQGTADSIRKFIWVLEDYYSHKSIDNIVILSGDQLYRMNYMELVQKHVEDDADITISCAPVDESRASKNGLVKIDHTGRVLQFFEKPKGADLNSMRVETNFLSYAIDDAQKYPYLASMGIYVFKKDALLDLLKSKYTQLHDFGSEILPRAVLDHSVQACIFTGYWEDVGTIKSFFDANLALTEQPSKFDFYDPKTPFFTAPRCLPPTQLDKCKMKYAFISDGCLLRECNIEHSVIGVCSRVSSGCELKDSVMMGADTYQTEEEASKLLLAGKVPVGIGRNTKIRNCIIDMNARIGKNVVITNSKGIQEADHPEEGYYIRSGIVVILKNATINDGSVI
For B5, in the data set on maize endosperm AGPase [6] (ref Georgelis et al., 2009), the “effect on 3-PGA Ka (in words)” value is “Did not alter 3-PGA Ka”.

B6: S444R: SH2 large subunit variant S444R (protein, UniProt P55241 46-516, looked up, variant S444R)
Glucose-1-phosphate …: FGGRVAATTQCILTSDACPETLHSQTQSSRKNYADANRVSAIILGGGTGSQLFPLTSTRATPAVPVGGCYRLIDIPMSNCFNSGINKIFVMSQFNSTSLNRHIHRTYLEGGINFADGSVQVLAATQMPEEPAGWFQGTADSIRKFIWVLEDYYSHKSIDNIVILSGDQLYRMNYMELVQKHVEDDADITISCAPVDESRASKNGLVKIDHTGRVLQFFEKPKGADLNSMRVETNFLSYAIDDAQKYPYLASMGIYVFKKDALLDLLKSKYTQLHDFGSEILPRAVLDHSVQACIFTGYWEDVGTIKSFFDANLALTEQPSKFDFYDPKTPFFTAPRCLPPTQLDKCKMKYAFISDGCLLRECNIEHSVIGVCSRVSSGCELKDSVMMGADTYETEEEARKLLLAGKVPVGIGRNTKIRNCIIDMNARIGKNVVITNSKGIQEADHPEEGYYIRSGIVVILKNATINDGSVI
B6: the “activity at 37° (in words)” value in the data set with maize endosperm AGPase [8] is listed as “had higher activity at 37°”. The “glycogen staining (in words)” value in the data set on E. coli AC70R1-504 (setting [9]) is “Stained darker at 37 and 42°”.
